According to patent US20260284207 (published 2026):
Several values for one entry are separate records, joined by “and”; a condition that tells them apart may be missing. Equal entries are not always repeated. One block for each binder: values may come before it. FL = fluorescein (N-terminal fluorescent label)

Legend:
Assay in all cases: FP
[1] = biological target: T1, FBXO31/SKP1 complex (wild type) (human, UniProt Q5XUX0)
FBXO31 D334N/SKP1 = FBXO31 D334N/SKP1 (human, UniProt Q5XUX0)
[2] = biological target: T1, FBXO31/SKP1 complex (wild type); remark: listed apart in the source

T1 sequence (Q5XUX0 whole entry, chain 1 of 2): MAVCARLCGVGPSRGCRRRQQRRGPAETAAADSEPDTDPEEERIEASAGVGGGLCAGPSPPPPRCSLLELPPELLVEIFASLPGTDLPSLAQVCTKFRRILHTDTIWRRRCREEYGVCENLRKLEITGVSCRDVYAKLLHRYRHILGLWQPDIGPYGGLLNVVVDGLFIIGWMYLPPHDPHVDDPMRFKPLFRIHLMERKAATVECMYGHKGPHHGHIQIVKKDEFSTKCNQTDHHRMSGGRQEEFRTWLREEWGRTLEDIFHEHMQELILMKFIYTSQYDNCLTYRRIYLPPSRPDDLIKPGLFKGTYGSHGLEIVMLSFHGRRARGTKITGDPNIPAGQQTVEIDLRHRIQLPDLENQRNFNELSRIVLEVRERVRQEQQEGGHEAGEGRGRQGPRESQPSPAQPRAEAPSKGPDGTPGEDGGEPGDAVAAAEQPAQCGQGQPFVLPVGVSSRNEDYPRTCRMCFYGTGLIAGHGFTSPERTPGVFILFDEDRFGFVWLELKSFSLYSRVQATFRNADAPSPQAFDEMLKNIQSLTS
T1 sequence (chain, as listed by the source, chain 2 of 2): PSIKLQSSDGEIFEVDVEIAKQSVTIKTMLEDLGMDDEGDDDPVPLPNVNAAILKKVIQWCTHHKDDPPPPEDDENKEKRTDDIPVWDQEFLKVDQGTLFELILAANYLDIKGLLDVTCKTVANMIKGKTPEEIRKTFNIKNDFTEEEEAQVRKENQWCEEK
Chain of FBXO31 D334N/SKP1 (Q5XUX0 whole entry D334N, chain 1 of 2): as the sequence (Q5XUX0 whole entry, chain 1 of 2) above, with D334N counted along it
Chain of FBXO31 D334N/SKP1 (chain, as listed by the source D334N, chain 2 of 2): as the sequence (chain, as listed by the source, chain 2 of 2) above

binding result (FBXO31 D334N/SKP1): no binding
binding result [2]: no binding
Binder: {FL}-KAATPTDVRDVDI-OH [FL-CycD1-OH]

binding result [2]: no binding
Binder: {FL}-KEEDEKGSRASDDFRDLR-OH [FL-Pep2-OH (non-amidated model peptide)]

Continued, binder first:

Binder: {FL}-KEEDEKGSRASDDFRDLR-NH2 [FL-Pep2-NH2 (amidated model/screening peptide)]
Kd [1]: 22 nM and 16 nM

Binder: {FL}-KAATPTDVRDVDI-NH2 [FL-CycD1-NH2]
Kd [1]: 59 nM
